This is an account of results in paper PMC9256704.

For the experiment, the target named is PKM2 (M2 isoform of pyruvate kinase), endogenous (human (endogenous in A549 and in patients' lung cancer tissues)) (UniProt P14618). Nature of the experiment: native gel or EMSA; native PAGE of cytoplasm and nucleus of cells; TRIB2 overexpression or siRNA-TRIB2. A general note: A gel shift assay detects complexes by their altered migration in electrophoresis.

Sequence of PKM2 (M2 isoform of pyruvate kinase), endogenous, P14618 1-531 (natural protein; other documents disagree on this pair) (P14618 whole entry, canonical isoform): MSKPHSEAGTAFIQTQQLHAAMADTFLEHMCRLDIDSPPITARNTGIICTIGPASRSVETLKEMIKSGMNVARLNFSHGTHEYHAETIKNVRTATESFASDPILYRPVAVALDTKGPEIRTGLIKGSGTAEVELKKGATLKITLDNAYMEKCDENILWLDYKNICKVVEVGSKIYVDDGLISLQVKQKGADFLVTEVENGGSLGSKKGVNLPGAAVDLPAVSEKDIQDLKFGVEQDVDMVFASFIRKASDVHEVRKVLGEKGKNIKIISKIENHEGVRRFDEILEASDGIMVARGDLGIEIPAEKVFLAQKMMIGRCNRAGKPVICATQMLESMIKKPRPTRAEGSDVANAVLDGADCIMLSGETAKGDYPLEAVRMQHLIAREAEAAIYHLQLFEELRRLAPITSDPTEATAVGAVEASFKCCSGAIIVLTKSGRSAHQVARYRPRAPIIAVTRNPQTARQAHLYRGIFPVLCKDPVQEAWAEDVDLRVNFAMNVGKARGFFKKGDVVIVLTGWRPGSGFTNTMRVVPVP

One may read the stoichiometry N as the number of molecules, sites or subunits per partner or assembly. Regarding “PKM2 (M2 isoform of pyruvate kinase), endogenous, P14618 1-531 (natural protein; other documents disagree on this pair)”, the stoichiometry N came out at 2.
